Common to all, as to assay: SEC-MALS; Superdex 200 5/150 GL; 100 mM Tris-HCl pH 8.0, 150 mM NaCl, 1 mM EDTA, 10% (v/v) glycerol; 0.15 mL/min; 90 µL of each sample at 1.6 mg/mL injected
The target of data set [1] is Plastid-specific ribosomal protein 1b (PSRP1b) of Physcomitrium patens, mature form (Physcomitrium patens).
The target in data set [2] is Plastid-specific ribosomal protein 1a (PSRP1a) of Physcomitrium patens, mature form (Physcomitrium patens).
Data set [3] deals with the molecule itself.

Data on three molecules can be found in article PMC12567329, “Chloroplast Hibernation-Promoting Factor PSRP1 Prevents Ribosome Degradation Under Darkness Independently of 100S Dimer Formation” (Plants, 2025).

“Plastid-specific ribosomal protein 1b (PSRP1b) of Physcomitrium patens, mature form (natural protein)” came in with a stoichiometry N in data set [1] of 2.
In the case of “Plastid-specific ribosomal protein 1a (PSRP1a) of Physcomitrium patens, mature form (natural protein)”, in data set [2], the stoichiometry N turned out to be 2.

B1: Bacillus subtilis long-form hibernation-promoting factor (BsHPF) (natural protein, UniProt P28368 1-189, looked up)
chain: MNYNIRGENIEVTPALKDHVERKIGKLERYFDHSVDADVNVNLKFYNDKESKVEVTIPMTDLALRSEVHNEDMYNAIDLATNKLERQIRKHKTKVNRKFREQGSPKYLLANGLGSDTDIAVQDDIEEEESLDIVRQKRFNLKPMDSEEAILQMNMLGHNFFVFTNAETNLTNVVYRRNDGKYGLIEPTE
notes: Long-form hibernation-promoting factor (LHPF) of Bacillus subtilis, amplified from genomic DNA; predicted mass of the construct 24.2 kDa; Dimeric control protein of the SEC-MALS experiment; also called Bacillus subtilis LHPF
As to B1, the “stoichiometry N” value in data set [3] is 2.

One may read the stoichiometry N as a count of units in the complex or per binding partner.
